Laboratory results reported in patent US20200277373A1 (DENALI THERAPEUTICS, published 2020).
Numbering of substitutions follows the chain as printed.

T1: Human TREM2 protein, on cells (human, UniProt Q9NZC2 19-230)
T1 sequence: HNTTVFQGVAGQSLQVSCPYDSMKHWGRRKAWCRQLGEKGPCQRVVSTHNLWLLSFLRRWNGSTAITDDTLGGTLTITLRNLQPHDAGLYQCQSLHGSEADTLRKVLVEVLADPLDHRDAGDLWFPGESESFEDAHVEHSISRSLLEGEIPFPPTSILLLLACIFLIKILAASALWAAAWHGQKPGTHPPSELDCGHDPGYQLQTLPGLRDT

T2: Mouse TREM2, on cells (mouse, UniProt Q99NH8 19-227)
T2 construct: whole, on cells; also called mouse TREM2 HEK
T2 sequence (looked up): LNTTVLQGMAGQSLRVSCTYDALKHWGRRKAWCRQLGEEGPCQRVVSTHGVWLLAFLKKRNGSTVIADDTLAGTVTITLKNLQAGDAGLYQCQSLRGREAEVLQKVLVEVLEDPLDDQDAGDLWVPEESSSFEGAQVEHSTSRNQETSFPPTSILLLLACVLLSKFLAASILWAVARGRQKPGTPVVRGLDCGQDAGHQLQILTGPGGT

T3: His-tagged TREM2 ECD (ecto domain residues 19-172 of human TREM2, C-terminal 6X-His tag) (human, UniProt Q9NZC2 19-172)
T3 construct: Made in Expi293F cells; the mouse Ig kappa secretion signal is not part of the mature protein; Biotinylated for the Octet binning; also called TREM2-His; TREM2-His protein
T3 sequence: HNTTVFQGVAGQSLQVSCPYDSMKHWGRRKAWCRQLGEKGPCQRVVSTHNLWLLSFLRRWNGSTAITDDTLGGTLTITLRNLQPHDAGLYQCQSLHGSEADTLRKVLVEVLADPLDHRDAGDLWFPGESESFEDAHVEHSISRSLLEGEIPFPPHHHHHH

B1: 49H11.B1 (antibody, IgG3, V domains shown)
VH: DVQLQESGPGLVKPSQSLSLTCTVTGYSITSDYAWNWIRQFPGNRLEWMGYISFSGSTSYNPSLKSRISITRDTSKNQFFLQLNSVTTEDTATYYCARWNGNYGFAYWGQGTLVTVSA
VL: DVVMTQTPLSLPVSLGDQASISCRSSQSLVHINGNTYLHWYLQKPGQSPKLLIYKVSNRFSGVPDRFSGSGSGTDFTLKISRVEAEDLGVYFCSQSTHVTFTFGSGTKLEIK
notes: Mouse hybridoma antibody, IgG3, k; also called RS8.49H11.B1
B2: 24B4.A1 (antibody, V domains shown)
VH: QVHLQQSGSELRSPGSSVKLSCKDFDSEVFPISYMSWIRQKPGHGFEWIGDILPSIGGRIYGVKFEDRATLDADTVSNTAYLELNSLTSEDSAIYYCARKDYGSLAYWGQGTLVTVSA
VL: B1 VL with H39Q, Y41F, D75A, T100P, F101Y, S105G
notes: Mouse hybridoma antibody, Ig2a, k; same entries as 26E2.A3; also called RS8.24B4.A1
B3: 54C2.A1 (antibody, V domains shown)
VH: B2 VH with S33A, I38V, G58R, R68K, A98T
VL: B1 VL with H39Q, K79R, V99L, T100P, F101Y, S105G
notes: Mouse hybridoma antibody, Ig2b, k; also called RS8.54C2.A1

Key:
[1] = molecular target: T1, Human TREM2 protein, on cells; test: cell-based or functional assay
[2] = molecular target: T1, Human TREM2 protein, on cells; test: cell-based or functional assay; remark: listed apart in the source
[3] = molecular target: T2, Mouse TREM2, on cells; test: Table 5, cell binding: Mouse TREM2 HEK
[4] = molecular target: T3, His-tagged TREM2 ECD (ecto domain …); test: Table 1 Kd; Biacore, TREM2-His analyte (presumed)
Description: Anti-murine Fc antibody (obtained from GE Healthcare) was immobilized on the surface of a CM5 chip (obtained from GE Healthcare) through amine-coupling to reach about 6,000 to 8,000 response units (RU). The surface was activated by injection of a mixture of 1-ethyl-3-(3-dimethylaminopropyl)-carbodiimide (EDC) and N-hydroxysuccinimide (NHS), both obtained from GE Healthcare, for 7 minutes. Anti-murine Fc antibody was diluted in sodium acetate (pH 5.0) at 25 μg/mL and injected for 10 minutes at a flow rate of 5 μL/minute, followed by injection of ethanolamine (obtained from GE Healthcare) for 7 minutes.
Purified anti-TREM2 hybridoma (20 μg/mL) was captured to reach 1000-1500 RU. A range of serially-diluted TREM2-His protein (e.g., 3.4 nM to 300 nM) was injected at a flow rate of 30 μL/minute, using either single-cycle kinetics methods. Sensorgrams were fitted using a 1:1 Langmuir model to estimate kₒₙ and koff.

[5] = molecular target: T2, Mouse TREM2, on cells; test: flow cytometry, 293F cells overexpressing mouse TREM2
Description: (§1) After labeling, cells were washed twice with 1×PBS. […] Mixed cell lines were seeded at 300,000 cells per well in a 96-well round-bottom and incubated 20 minutes at room temperature. After incubation, cells were centrifuged and test anti-TREM2 antibodies were added, then incubated for 45 minutes on ice. After incubation, cells were centrifuged and washed with FACS buffer three times.
(§2) The data in Table 2 is presented as fold over binding (FOB).

[6] = molecular target: T1, Human TREM2 protein, on cells; test: flow cytometry, HEK293 cells overexpressing human TREM2
Description: as §1, §2

[7] = molecular target: T1, Human TREM2 protein, on cells; test: cell binding, human TREM2-expressing HEK cells, flow cytometry titration

Binder	pSyk FOB (30 nM Ab) [1] [fold over background]	pSyk (nM), EC50 [2] [nM]	binding result [3]	Kd [4] [nM]	FOB (fold over binding) [5] [fold]	FOB (fold over binding) [6] [fold]	EC50 [7] [nM]
B1	11.6	26.5	no binding	63.4	1.2	7	–
B2	17.3	49.8	no binding	12.4	1.5	8.6	7.5
B3	6.56	456	no binding	2.19	1.7	12.8	4.09
